Experimental data published in the supplement of paper PMC10065799, “High-throughput profiling of sequence recognition by tyrosine kinases and SH2 domains using bacterial peptide display” (eLife, 2023).

molecular target: FGFR3 (UniProt P22607); test: phosphorylation enrichment, bacterial display (enrichment ratio); higher = better substrate or ligand; peptides without Tyr show the background
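Note: 11-residue human phosphosite peptides and single-mutation variants displayed on the E. coli surface, counted by deep sequencing, each peptide's frequency after selection divided by its frequency in the unselected input library; frequency after pTyr selection over input frequency; kinase dosed for 20-30% of maximal phosphorylation in three min.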

Sequence of FGFR3 (P22607 whole entry, looked up): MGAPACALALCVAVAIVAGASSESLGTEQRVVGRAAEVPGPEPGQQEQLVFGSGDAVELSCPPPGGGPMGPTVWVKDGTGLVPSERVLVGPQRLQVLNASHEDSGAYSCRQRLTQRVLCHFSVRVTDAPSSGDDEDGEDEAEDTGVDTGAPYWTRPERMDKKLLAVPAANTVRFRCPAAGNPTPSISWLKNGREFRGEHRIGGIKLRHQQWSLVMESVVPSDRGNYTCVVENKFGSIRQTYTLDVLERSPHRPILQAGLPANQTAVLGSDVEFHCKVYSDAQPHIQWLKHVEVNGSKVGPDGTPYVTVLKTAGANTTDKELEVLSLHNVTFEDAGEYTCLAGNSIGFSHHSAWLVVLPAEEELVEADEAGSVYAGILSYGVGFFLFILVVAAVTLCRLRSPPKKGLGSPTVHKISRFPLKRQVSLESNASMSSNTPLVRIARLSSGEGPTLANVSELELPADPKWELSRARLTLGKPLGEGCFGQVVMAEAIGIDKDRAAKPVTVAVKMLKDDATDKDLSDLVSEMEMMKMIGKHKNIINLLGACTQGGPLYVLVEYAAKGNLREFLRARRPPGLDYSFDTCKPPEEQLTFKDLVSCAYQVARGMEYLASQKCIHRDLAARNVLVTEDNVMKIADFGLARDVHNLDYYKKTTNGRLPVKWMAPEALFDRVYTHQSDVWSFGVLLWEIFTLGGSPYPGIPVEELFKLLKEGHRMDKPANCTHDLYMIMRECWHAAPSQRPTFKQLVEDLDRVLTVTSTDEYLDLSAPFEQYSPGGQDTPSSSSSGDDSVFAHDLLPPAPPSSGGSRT

| Sequence | phosphorylation enrichment |
| --- | --- |
| TQPSPYAVFLF [RPGRIP1_Y823_R827L_YF] | 0.942 |
| SLAARYYNWVS [FLT4_Y1230] | 3.55 |
| DVCKNYAEAKD [ALB_Y343] | 0.702 |
| DVQNEYDSNHC [ZFYVE16_Y36_A35E] | 0.665 |
| GFWPRYVKVGS [NOG_Y172_R167G] | 0.653 |
| ERNAHYRTPKI [PTK2B_Y699_R698H] | 0.473 |
| QGIYGYHHHMQ [UFSP2_Y287_Y290H] | 0.653 |
| NELTFYCFKKD [CD59_Y87_C89Y_YF] | 0.614 |
| PEAALYGRFTF [FYN_Y440_I445F] | 0.971 |
| SYNNKYGMVAQ [APOB_Y276_K273N] | 0.471 |
| ERTIEYLEEVV [HADHA_Y239_A244V] | 0.712 |
| FIAVGYVDDSQ [HLA-A_Y51_T55S] | 0.629 |
| DPGVSYRTREE [PDHA1_Y301] | 0.53 |
| IKSSIYDNRNE [ARAP2_Y380_K384N] | 0.388 |
| ELAINYQEQAS [SLC9A9_Y591] | 0.674 |
| EKFVPYYDLFM [IPO5_Y530] | 5.89 |
| DRLAVYIDRVR [LMNA_Y45] | 0.745 |

| Sequence | phosphorylation enrichment |
| --- | --- |
| LPPGTYPSDFT [UNC5B_Y511_A516T] | 0.85 |
| LVRPPYSYSAL [FOXI1_Y126] | 0.713 |
| KDHPDYKYQLR [SOX10_Y171_P175L] | 0.491 |
| KVVVPYEPPEV [TP53_Y220_S215K] | 0.632 |
| AALSAYAAQRP [PTPRN2_Y249] | 0.433 |
| SEPSGYQDNIA [DES_Y363_A360P] | 0.708 |
| LNSFIYSLRNR [OR1A1_Y288_P285S] | 0.671 |
| SLAARYFNWVC [FLT4_Y1230_S1235C_YF] | 0.822 |
| LEHCQYVTQKV [ALDOB_Y204_E207Q] | 0.763 |
| PEQAAYQKVVA [HBB_Y131_V127E] | 0.524 |
| GNYSGYDDAWD [POLR1C_Y36] | 0.931 |
| QNKEDYDGLKE [GSTO1_Y139_A140D] | 1.3 |
| TNLVPYPCIHF [TUBA1A_Y262_R264C] | 0.66 |
| LKGQVYILGWE [ASS1_Y359_R363W] | 0.81 |
| LLKANYELLNA [POLR3A_Y714_K713N] | 0.78 |
| RQEEEYKRLSE [SFSWAP_Y133] | 1.22 |

system: Fer (mouse); test: as above

| Sequence | phosphorylation enrichment |
| --- | --- |
| TQPSPYAVFLF [RPGRIP1_Y823_R827L_YF] | 7.3 |
| SLAARYYNWVS [FLT4_Y1230] | 0.817 |
| DVCKNYAEAKD [ALB_Y343] | 0.495 |
| DVQNEYDSNHC [ZFYVE16_Y36_A35E] | 0.414 |
| GFWPRYVKVGS [NOG_Y172_R167G] | 0.388 |
| ERNAHYRTPKI [PTK2B_Y699_R698H] | 0.424 |
| QGIYGYHHHMQ [UFSP2_Y287_Y290H] | 10.9 |
| NELTFYCFKKD [CD59_Y87_C89Y_YF] | 0.591 |
| PEAALYGRFTF [FYN_Y440_I445F] | 2.75 |
| SYNNKYGMVAQ [APOB_Y276_K273N] | 0.411 |
| ERTIEYLEEVV [HADHA_Y239_A244V] | 0.523 |
| FIAVGYVDDSQ [HLA-A_Y51_T55S] | 0.444 |
| DPGVSYRTREE [PDHA1_Y301] | 0.368 |
| IKSSIYDNRNE [ARAP2_Y380_K384N] | 0.33 |
| ELAINYQEQAS [SLC9A9_Y591] | 0.524 |
| EKFVPYYDLFM [IPO5_Y530] | 3.71 |
| DRLAVYIDRVR [LMNA_Y45] | 0.488 |

| Sequence | phosphorylation enrichment |
| --- | --- |
| LPPGTYPSDFT [UNC5B_Y511_A516T] | 0.403 |
| LVRPPYSYSAL [FOXI1_Y126] | 0.619 |
| KDHPDYKYQLR [SOX10_Y171_P175L] | 0.418 |
| KVVVPYEPPEV [TP53_Y220_S215K] | 0.38 |
| AALSAYAAQRP [PTPRN2_Y249] | 0.347 |
| SEPSGYQDNIA [DES_Y363_A360P] | 0.525 |
| LNSFIYSLRNR [OR1A1_Y288_P285S] | 0.693 |
| SLAARYFNWVC [FLT4_Y1230_S1235C_YF] | 0.546 |
| LEHCQYVTQKV [ALDOB_Y204_E207Q] | 0.648 |
| PEQAAYQKVVA [HBB_Y131_V127E] | 0.681 |
| GNYSGYDDAWD [POLR1C_Y36] | 0.742 |
| QNKEDYDGLKE [GSTO1_Y139_A140D] | 0.754 |
| TNLVPYPCIHF [TUBA1A_Y262_R264C] | 0.517 |
| LKGQVYILGWE [ASS1_Y359_R363W] | 0.642 |
| LLKANYELLNA [POLR3A_Y714_K713N] | 0.551 |
| RQEEEYKRLSE [SFSWAP_Y133] | 0.892 |

molecular target: Fes (UniProt P07332); test: as above
Sequence (P07332 whole entry, looked up): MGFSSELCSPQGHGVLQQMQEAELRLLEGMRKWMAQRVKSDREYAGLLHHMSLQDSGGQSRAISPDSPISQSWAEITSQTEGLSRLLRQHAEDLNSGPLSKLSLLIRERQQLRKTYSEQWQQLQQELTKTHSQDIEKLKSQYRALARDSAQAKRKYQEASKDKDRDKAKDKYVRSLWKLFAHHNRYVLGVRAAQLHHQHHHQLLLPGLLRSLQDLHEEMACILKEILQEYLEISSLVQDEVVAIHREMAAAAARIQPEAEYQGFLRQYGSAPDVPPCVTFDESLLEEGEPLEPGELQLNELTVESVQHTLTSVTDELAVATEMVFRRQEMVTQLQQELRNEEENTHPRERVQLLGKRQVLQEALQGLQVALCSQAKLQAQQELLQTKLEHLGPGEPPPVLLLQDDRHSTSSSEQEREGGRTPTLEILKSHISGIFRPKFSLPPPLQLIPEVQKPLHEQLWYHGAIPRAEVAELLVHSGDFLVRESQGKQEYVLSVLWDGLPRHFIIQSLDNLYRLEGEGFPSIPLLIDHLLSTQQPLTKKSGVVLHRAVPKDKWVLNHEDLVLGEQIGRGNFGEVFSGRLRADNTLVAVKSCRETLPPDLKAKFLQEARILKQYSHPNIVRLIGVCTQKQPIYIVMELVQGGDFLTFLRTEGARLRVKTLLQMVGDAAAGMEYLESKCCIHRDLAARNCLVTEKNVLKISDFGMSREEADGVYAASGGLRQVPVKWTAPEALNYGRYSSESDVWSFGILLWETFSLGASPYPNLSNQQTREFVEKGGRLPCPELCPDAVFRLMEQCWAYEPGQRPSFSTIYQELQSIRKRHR

| Sequence | phosphorylation enrichment |
| --- | --- |
| TQPSPYAVFLF [RPGRIP1_Y823_R827L_YF] | 0.915 |
| SLAARYYNWVS [FLT4_Y1230] | 1.15 |
| DVCKNYAEAKD [ALB_Y343] | 1.19 |
| DVQNEYDSNHC [ZFYVE16_Y36_A35E] | 1.07 |
| GFWPRYVKVGS [NOG_Y172_R167G] | 0.97 |
| ERNAHYRTPKI [PTK2B_Y699_R698H] | 0.495 |
| QGIYGYHHHMQ [UFSP2_Y287_Y290H] | 0.923 |
| NELTFYCFKKD [CD59_Y87_C89Y_YF] | 1.22 |
| PEAALYGRFTF [FYN_Y440_I445F] | 1.6 |
| SYNNKYGMVAQ [APOB_Y276_K273N] | 0.632 |
| ERTIEYLEEVV [HADHA_Y239_A244V] | 1.17 |
| FIAVGYVDDSQ [HLA-A_Y51_T55S] | 1.08 |
| DPGVSYRTREE [PDHA1_Y301] | 0.809 |
| IKSSIYDNRNE [ARAP2_Y380_K384N] | 0.584 |
| ELAINYQEQAS [SLC9A9_Y591] | 0.869 |
| EKFVPYYDLFM [IPO5_Y530] | 1.18 |
| DRLAVYIDRVR [LMNA_Y45] | 1.11 |

| Sequence | phosphorylation enrichment |
| --- | --- |
| LPPGTYPSDFT [UNC5B_Y511_A516T] | 1.25 |
| LVRPPYSYSAL [FOXI1_Y126] | 0.862 |
| KDHPDYKYQLR [SOX10_Y171_P175L] | 0.704 |
| KVVVPYEPPEV [TP53_Y220_S215K] | 0.866 |
| AALSAYAAQRP [PTPRN2_Y249] | 0.491 |
| SEPSGYQDNIA [DES_Y363_A360P] | 1.05 |
| LNSFIYSLRNR [OR1A1_Y288_P285S] | 2.02 |
| SLAARYFNWVC [FLT4_Y1230_S1235C_YF] | 1.2 |
| LEHCQYVTQKV [ALDOB_Y204_E207Q] | 1.04 |
| PEQAAYQKVVA [HBB_Y131_V127E] | 1.07 |
| GNYSGYDDAWD [POLR1C_Y36] | 1.32 |
| QNKEDYDGLKE [GSTO1_Y139_A140D] | 1.74 |
| TNLVPYPCIHF [TUBA1A_Y262_R264C] | 0.96 |
| LKGQVYILGWE [ASS1_Y359_R363W] | 1.4 |
| LLKANYELLNA [POLR3A_Y714_K713N] | 0.865 |
| RQEEEYKRLSE [SFSWAP_Y133] | 2.21 |

molecular target: Fyn (UniProt P06241); test: as above
Sequence (P06241 whole entry, looked up): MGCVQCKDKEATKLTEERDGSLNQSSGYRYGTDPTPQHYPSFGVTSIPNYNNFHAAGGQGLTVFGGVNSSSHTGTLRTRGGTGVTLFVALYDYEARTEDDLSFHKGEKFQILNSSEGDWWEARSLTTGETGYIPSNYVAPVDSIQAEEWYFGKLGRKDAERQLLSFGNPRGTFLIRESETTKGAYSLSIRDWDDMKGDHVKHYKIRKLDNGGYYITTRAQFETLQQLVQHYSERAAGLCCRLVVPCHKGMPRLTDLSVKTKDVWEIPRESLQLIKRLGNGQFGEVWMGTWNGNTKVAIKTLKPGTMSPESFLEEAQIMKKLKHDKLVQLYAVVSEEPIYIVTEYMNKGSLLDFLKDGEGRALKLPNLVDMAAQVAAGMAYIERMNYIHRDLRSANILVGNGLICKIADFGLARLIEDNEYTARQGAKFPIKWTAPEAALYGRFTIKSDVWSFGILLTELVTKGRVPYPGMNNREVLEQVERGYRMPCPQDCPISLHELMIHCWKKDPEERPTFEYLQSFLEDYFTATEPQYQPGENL

| Sequence | phosphorylation enrichment |
| --- | --- |
| TQPSPYAVFLF [RPGRIP1_Y823_R827L_YF] | 6.88 |
| SLAARYYNWVS [FLT4_Y1230] | 0.512 |
| DVCKNYAEAKD [ALB_Y343] | 0.509 |
| DVQNEYDSNHC [ZFYVE16_Y36_A35E] | 0.59 |
| GFWPRYVKVGS [NOG_Y172_R167G] | 0.493 |
| ERNAHYRTPKI [PTK2B_Y699_R698H] | 0.367 |
| QGIYGYHHHMQ [UFSP2_Y287_Y290H] | 9.98 |
| NELTFYCFKKD [CD59_Y87_C89Y_YF] | 0.412 |
| PEAALYGRFTF [FYN_Y440_I445F] | 10.1 |
| SYNNKYGMVAQ [APOB_Y276_K273N] | 0.428 |
| ERTIEYLEEVV [HADHA_Y239_A244V] | 0.466 |
| FIAVGYVDDSQ [HLA-A_Y51_T55S] | 0.333 |
| DPGVSYRTREE [PDHA1_Y301] | 0.409 |
| IKSSIYDNRNE [ARAP2_Y380_K384N] | 0.464 |
| ELAINYQEQAS [SLC9A9_Y591] | 0.539 |
| EKFVPYYDLFM [IPO5_Y530] | 3.05 |
| DRLAVYIDRVR [LMNA_Y45] | 0.476 |

| Sequence | phosphorylation enrichment |
| --- | --- |
| LPPGTYPSDFT [UNC5B_Y511_A516T] | 0.82 |
| LVRPPYSYSAL [FOXI1_Y126] | 0.722 |
| KDHPDYKYQLR [SOX10_Y171_P175L] | 0.403 |
| KVVVPYEPPEV [TP53_Y220_S215K] | 0.458 |
| AALSAYAAQRP [PTPRN2_Y249] | 0.305 |
| SEPSGYQDNIA [DES_Y363_A360P] | 0.724 |
| LNSFIYSLRNR [OR1A1_Y288_P285S] | 2.42 |
| SLAARYFNWVC [FLT4_Y1230_S1235C_YF] | 0.38 |
| LEHCQYVTQKV [ALDOB_Y204_E207Q] | 0.47 |
| PEQAAYQKVVA [HBB_Y131_V127E] | 0.462 |
| GNYSGYDDAWD [POLR1C_Y36] | 0.597 |
| QNKEDYDGLKE [GSTO1_Y139_A140D] | 0.943 |
| TNLVPYPCIHF [TUBA1A_Y262_R264C] | 0.492 |
| LKGQVYILGWE [ASS1_Y359_R363W] | 0.575 |
| LLKANYELLNA [POLR3A_Y714_K713N] | 0.431 |
| RQEEEYKRLSE [SFSWAP_Y133] | 1.02 |
